16 molecules from patent US20240392020A1 (JIANGSU HENGRUI PHARMACEUTICALS, published 2024) can be followed below.

Sequences and labels used below:
B1: N25 (antibody)
heavy: not shown
light: EIVLTQSPGTLSLSPGERATLSCRASQNINNRFLAWYQQRPGQAPRLLIYAASSRATGVPDRFSGSGSGTDFTLTISRLEAEDFAMYHCQQYGSFPRTFGQGTMVDIKGGGGSGGGGSSGAPRFLTRPKAFVVSVGKDATLSSQIVGNPTPQVSWEKDQQPVAAGARFRLAQDGDLYRLTILDLALGDSGQYVSRARNAIGEAFACVGLQVDAEA
B2: N11 (antibody)
heavy: not shown
light: EIVLTQSPGTLSLSPGERATLSCRASQNINNRFLAWYQQRPGQAPRLLIYAASSRATGVPDRFSGSGSGTDFTLTISRLEAEDFAMYHCQQYGSFPRTFGQGTMVDIKSGAPRFKTRPKAFVVSVGKDATLSSQIVGNPTPQVSWEKDQQPVAAGARFRLAQDGDLYRLKILDLALGDSGQYVSRARNAIGEAFACVGLQVDAEA
B3: N16 (antibody)
heavy: not shown
light: EIVLTQSPGTLSLSPGERATLSCRASQNINNRFLAWYQQRPGQAPRLLIYAASSRATGVPDRFSGSGSGTDFTLTISRLEAEDFAMYHCQQYGSFPRTFGQGTMVDIKSGAPRFLTRPLAFVVSVGKDATLSSQIVGNPTPQVSWEKDQQPVAAGARFRLAQDGDLYRLHILDLALGDSGQYVSRARNAIGEAFACVGLQVDAEA
B4: N15 (antibody)
heavy: not shown
light: EIVLTQSPGTLSLSPGERATLSCRASQNINNRFLAWYQQRPGQAPRLLIYAASSRATGVPDRFSGSGSGTDFTLTISRLEAEDFAMYHCQQYGSFPRTFGQGTMVDIKSGAPRFLTRPLAFVVSVGKDATLSSQIVGNPTPQVSWEKDQQPVAAGARFRLAQDGDLYRLKILDLALGDSGQYVSRARNAIGEAFACVGLQVDAEA
B5: N14 (antibody)
heavy: not shown
light: EIVLTQSPGTLSLSPGERATLSCRASQNINNRFLAWYQQRPGQAPRLLIYAASSRATGVPDRFSGSGSGTDFTLTISRLEAEDFAMYHCQQYGSFPRTFGQGTMVDIKSGAPRFLTRPLAFVVSVGKDATLSSQIVGNPTPQVSWEKDQQPVAAGARFRLAQDGDLYRLKILDLALGDSGQYVSRARNAIGEAFACVGLQVDAEA
B6: N12 (antibody)
heavy: not shown
light: EIVLTQSPGTLSLSPGERATLSCRASQNINNRFLAWYQQRPGQAPRLLIYAASSRATGVPDRFSGSGSGTDFTLTISRLEAEDFAMYHCQQYGSFPRTFGQGTMVDIKSGAPRFKTRPKAFVVSVGKDATLSSQIVGNPTPQVSWEKDQQPVAAGARFRLAQDGDLYRLHILDLALGDSGQYVSRARNAIGEAFACVGLQVDAEA
B7: N10 (antibody)
heavy: not shown
light: EIVLTQSPGTLSLSPGERATLSCRASQNINNRFLAWYQQRPGQAPRLLIYAASSRATGVPDRFSGSGSGTDFTLTISRLEAEDFAMYHCQQYGSFPRTFGQGTMVDIKSGAPRFLTRPKAFVVSVGKDATLSSQIVGNPTPQVSWEKDQQPVAAGARFRLAQDGDLYRLTILDLALGDSGQYVSRARNAIGEAFACVGLQVDAEA
B8: N13 (antibody)
heavy: not shown
light: EIVLTQSPGTLSLSPGERATLSCRASQNINNRFLAWYQQRPGQAPRLLIYAASSRATGVPDRFSGSGSGTDFTLTISRLEAEDFAMYHCQQYGSFPRTFGQGTMVDIKSGAPRFKTRPKAFVVSVGKDATLSSQIVGNPTPQVSWEKDQQPVAAGARFRLAQDGDLYRLHILDLALGDSGQYVSRARNAIGEAFACVGLQVDAEA
B9: N17 (antibody)
heavy: not shown
light: EIVLTQSPGTLSLSPGERATLSCRASQNINNRFLAWYQQRPGQAPRLLIYAASSRATGVPDRFSGSGSGTDFTLTISRLEAEDFAMYHCQQYGSFPRTFGQGTMVDIKDQPQFSGAPRFLTRPKAFVVSVGKDATLSSQIVGNPTPQVSWEKDQQPVAAGARFRLAQDGDLYRLTILDLALGDSGQYVSRARNAIGEAFACVGLQVDAEA
B10: N20 (antibody)
heavy: not shown
light: EIVLTQSPGTLSLSPGERATLSCRASQNINNRFLAWYQQRPGQAPRLLIYAASSRATGVPDRFSGSGSGTDFTLTISRLEAEDFAMYHCQQYGSFPRTFGQGTMVDIKDQPQFSGAPRFKTRPKAFVVSVGKDATLSSQIVGNPTPQVSWEKDQQPVAAGARFRLAQDGDLYRLKILDLALGDSGQYVSRARNAIGEAFACVGLQVDAEA
B11: N22 (antibody)
heavy: not shown
light: EIVLTQSPGTLSLSPGERATLSCRASQNINNRFLAWYQQRPGQAPRLLIYAASSRATGVPDRFSGSGSGTDFTLTISRLEAEDFAMYHCQQYGSFPRTFGQGTMVDIKDQPQFSGAPRFRTRPKAFVVSVGKDATLSSQIVGNPTPQVSWEKDQQPVAAGARFRLAQDGDLYRLKILDLALGDSGQYVSRARNAIGEAFACVGLQVDAEA
B12: N21 (antibody)
heavy: not shown
light: EIVLTQSPGTLSLSPGERATLSCRASQNINNRFLAWYQQRPGQAPRLLIYAASSRATGVPDRFSGSGSGTDFTLTISRLEAEDFAMYHCQQYGSFPRTFGQGTMVDIKDQPQFSGAPRFKTRPKAFVVSVGKDATLSSQIVGNPTPQVSWEKDQQPVAAGARFRLAQDGDLYRLHILDLALGDSGQYVSRARNAIGEAFACVGLQVDAEA
B13: N23 (antibody)
heavy: not shown
light: EIVLTQSPGTLSLSPGERATLSCRASQNINNRFLAWYQQRPGQAPRLLIYAASSRATGVPDRFSGSGSGTDFTLTISRLEAEDFAMYHCQQYGSFPRTFGQGTMVDIKDQPQFSGAPRFRTRPKAFVVSVGKDATLSSQIVGNPTPQVSWEKDQQPVAAGARFRLAQDGDLYRLHILDLALGDSGQYVSRARNAIGEAFACVGLQVDAEA
B14: N19 (antibody)
heavy: not shown
light: EIVLTQSPGTLSLSPGERATLSCRASQNINNRFLAWYQQRPGQAPRLLIYAASSRATGVPDRFSGSGSGTDFTLTISRLEAEDFAMYHCQQYGSFPRTFGQGTMVDIKDQPQFSGAPRFKTRPKAFVVSVGKDATLSSQIVGNPTPQVSWEKDQQPVAAGARFRLAQDGDLYRLKILDLALGDSGQYVSRARNAIGEAFACVGLQVDAEA
B15: N18 (antibody)
heavy: not shown
light: EIVLTQSPGTLSLSPGERATLSCRASQNINNRFLAWYQQRPGQAPRLLIYAASSRATGVPDRFSGSGSGTDFTLTISRLEAEDFAMYHCQQYGSFPRTFGQGTMVDIKDQPQFSGAPRFLTRPKAFVVSVGKDATLSSQIVGNPTPQVSWEKDQQPVAAGARFRLAQDGDLYRLTILDLALGDSGQYVSRARNAIGEAFACVGLQVDAEA
B16: N24 (antibody)
heavy: not shown
light: EIVLTQSPGTLSLSPGERATLSCRASQNINNRFLAWYQQRPGQAPRLLIYAASSRATGVPDRFSGSGSGTDFTLTISRLEAEDFAMYHCQQYGSFPRTFGQGTMVDIKDQPQFSGAPRFRTRPKAFVVSVGKDATLSSQIVGNPTPQVSWEKDQQPVAAGARFRLAQDGDLYRLHILDLALGDSGQYVSRARNAIGEAFACVGLQVDAEA

This assay addresses T1, CEA on MKN45 cells (UniProt P06731 35-685).
T1 construct: whole, on cells
T1 sequence (looked up): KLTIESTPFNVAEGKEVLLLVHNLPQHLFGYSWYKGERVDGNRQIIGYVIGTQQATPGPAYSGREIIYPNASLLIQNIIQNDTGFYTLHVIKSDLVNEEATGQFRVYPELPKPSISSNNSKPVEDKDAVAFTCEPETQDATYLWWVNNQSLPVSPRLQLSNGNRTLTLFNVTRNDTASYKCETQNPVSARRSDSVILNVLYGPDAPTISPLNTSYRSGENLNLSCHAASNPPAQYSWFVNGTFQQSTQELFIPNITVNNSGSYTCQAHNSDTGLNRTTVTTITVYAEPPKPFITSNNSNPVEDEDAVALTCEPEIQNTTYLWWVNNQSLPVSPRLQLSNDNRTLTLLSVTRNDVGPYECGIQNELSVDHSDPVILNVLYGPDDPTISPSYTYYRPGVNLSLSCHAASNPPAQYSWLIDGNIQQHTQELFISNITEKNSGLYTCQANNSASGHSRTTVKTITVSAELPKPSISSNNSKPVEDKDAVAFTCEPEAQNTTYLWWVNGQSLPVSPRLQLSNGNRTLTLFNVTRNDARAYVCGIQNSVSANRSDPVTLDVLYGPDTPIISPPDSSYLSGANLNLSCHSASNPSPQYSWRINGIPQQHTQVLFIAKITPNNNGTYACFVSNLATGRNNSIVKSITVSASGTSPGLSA
Briefly: FACS, MKN45 cells. On the technique in general: A flow cytometer gives signals particle by particle.
B1: the EC50 (commonly the concentration at which the effect is half-maximal) was 0.62 nM. Turning to B2, the EC50 came out at 5 nM. Against the preceding molecule, the EC50 is about 8.1-fold higher. Under B3 stands 3.4 nM; under B4, 2.6 nM; under B5, 1.9 nM.

In turn, B6 registered an EC50 of 5.3 nM. For B7 the value was 3 nM; for B8, 2.9 nM; for B9, 2.2 nM.

In turn, B10 came in with a concentration giving a half-maximal response (EC50) of 2.8 nM.

Regarding B11, the EC50 worked out at 4.5 nM. Under B12 stands 5.2 nM; under B13, 9.4 nM. For B14 the value was 4.3 nM. For B15 the value was 3.2 nM; for B16, 6.7 nM.
